{"source": "IntAct's records for PubMed 19171758", "parents": {"B1": {"name": "BAR/IMD domain-containing adapter protein 2 (Homo sapiens), Q9UQB8-4 (parent)", "chain": "MSLSRSEEMHRLTENVYKTIMEQFNPSLRNFIAMGKNYEKALAGVTYAAKGYFDALVKMGELASESQGSKELGDVLFQMAEVHRQIQNQLEEMLKSFHNELLTQLEQKVELDSRYLSAALKKYQTEQRSKGDALDKCQAELKKLRKKSQGSKNPQKYSDKELQYIDAISNKQGELENYVSDGYKTALTEERRRFCFLVEKQCAVAKNSAAYHSKGKELLAQKLPLWQQACADPSKIPERAVQLMQQVASNGATLPSALSASKSNLVISDPIPGAKPLPVPPELAPFVGRMSAQESTPIMNGVTGPDGEDYSPWADRKAAQPKSLSPPQSQSKLSDSYSNTLPVRKSVTPKNSYATTENKTLPRSSSMAAGLERNGRMRVKAIFSHAAGDNSTLLSFKEGDLITLLVPEARDGWHYGESEKTKMRGWFPFSYTRVLDSDGSDRLHMSLQQGKSSSTGNLLDKDDLAIPPPDYGAASRAFPAQTASGFKQRPYSVAVPAFSQGLDDYGARSMSSGSGTLVSTV"}}}
{"variants_of": "B1", "settings": "with rac1_human RAC1, P63000"}
{"variant": "MSLSRSEEMHELTENVYKTIMEQFNPSLRNFIAMGKNYEKALAGVTYAAKGYFDALVKMGELASESQGSKELGDVLFQMAEVHRQIQNQLEEMLKSFHNELLTQLEQKVELDSRYLSAALKKYQTEQRSKGDALDKCQAELKELRKKSQGSKNPQKYSDKELQYIDAISNKQGELENYVSDGYKTALTEERRRFCFLVEKQCAVAKNSAAYHSKGKELLAQKLPLWQQACADPSKIPERAVQLMQQVASNGATLPSALSASKSNLVISDPIPGAKPLPVPPELAPFVGRMSAQESTPIMNGVTGPDGEDYSPWADRKAAQPKSLSPPQSQSKLSDSYSNTLPVRKSVTPKNSYATTENKTLPRSSSMAAGLERNGRMRVKAIFSHAAGDNSTLLSFKEGDLITLLVPEARDGWHYGESEKTKMRGWFPFSYTRVLDSDGSDRLHMSLQQGKSSSTGNLLDKDDLAIPPPDYGAASRAFPAQTASGFKQRPYSVAVPAFSQGLDDYGARSMSSGSGTLVSTV", "note": "[R11E;K143E]", "effect of a mutation on the interaction": "disrupting interaction"}
